Values joined by “and” are separate entries in the source; they are usually repeats but may differ in a detail not shown here. Equal entries are not always repeated. Where two headings read alike, the source gives them in different places.
T1: Vβ17 on human CD8+ T cells (human)
T1 chain: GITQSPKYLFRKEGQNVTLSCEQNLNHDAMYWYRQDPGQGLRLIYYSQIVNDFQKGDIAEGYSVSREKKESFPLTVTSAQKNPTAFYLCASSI

B1: VB13 (Vβ17×Null) bispecific antibody (bispecific antibody)
heavy 1: QVQLQESGPGLVKPSETLSLTCTVSGYSITSGYFWNWIRQPPGKGLEWIGYISYDGSNNYNPSLKSRVTISRDTSKNQFSLKLSSVTAADTAVYYCASPSPGTGYAVDYWGQGTLVTVSSASTKGPSVFPLAPCSRSTSESTAALGCLVKDYFPEPVTVSWNSGALTSGVHTFPAVLQSSGLYSLSSVVTVPSSSLGTKTYTCNVDHKPSNTKVDKRVESKYGPPCPPCPAPEAAGGPSVFLFPPKPKDTLMISRTPEVTCVVVDVSQEDPEVQFNWYVDGVEVHNAKTKPREEQFNSTYRVVSVLTVLHQDWLNGKEYKCKVSNKGLPSSIEKTISKAKGQPREPQVYTLPPSQEEMTKNQVSLSCAVKGFYPSDIAVEWESNGQPENNYKTTPPVLDSDGSFFLVSRLTVDKSRWQEGNVFSCSVMHEALHNRFTQKSLSLSLGK
light 1: DIQMTQSPSSLSASVGDRVTITCRSSQSLVHSNGNTYLHWYQQKPGKAPKFLIYKVSNRFSGVPSRFSGSGSGTDFTLTISSLQPEDFATYYCSQSTHVPFTFGQGTKLEIKRTVAAPSVFIFPPSDEQLKSGTASVVCLLNNFYPREAKVQWKVDNALQSGNSQESVTEQDSKDSTYSLSSTLTLSKADYEKHKVYACEVTHQGLSSPVTKSFNRGEC
heavy 2: not shown
light 2: not shown
B2: VB11 (anti-Vβ17/anti-CD123) bispecific antibody (bispecific antibody)
heavy 1: B1 heavy 1
light 1: B1 light 1
heavy 2: EVQLVQSGAEVKKPGESLKISCKGSGYSFTSYWISWVRQMPGKGLEWMGIIDPSDSDTRYSPSFQGQVTISADKSISTAYLQWSSLKASDTAMYYCARGDGSTDLDYWGQGTLVTVSSASTKGPSVFPLAPCSRSTSESTAALGCLVKDYFPEPVTVSWNSGALTSGVHTFPAVLQSSGLYSLSSVVTVPSSSLGTKTYTCNVDHKPSNTKVDKRVESKYGPPCPPCPAPEAAGGPSVFLFPPKPKDTLMISRTPEVTCVVVDVSQEDPEVQFNWYVDGVEVHNAKTKPREEQFNSTYRVVSVLTVLHQDWLNGKEYKCKVSNKGLPSSIEKTISKAKGQPREPQVYTLPPSQEEMTKNQVSLWCLVKGFYPSDIAVEWESNGQPENNYKTTPPVLDSDGSFFLYSRLTVDKSRWQEGNVFSCSVMHEALHNHYTQKSLSLSLGK
light 2: EIVLTQSPGTLSLSPGERATLSCRASQSVSSSYLAWYQQKPGQAPRLLIYGASSRATGIPDRFSGSGSGTDFTLTISRLEPEDFAVYYCQQDYGFPWTFGQGTKVEIKRTVAAPSVFIFPPSDEQLKSGTASVVCLLNNFYPREAKVQWKVDNALQSGNSQESVTEQDSKDSTYSLSSTLTLSKADYEKHKVYACEVTHQGLSSPVTKSFNRGEC

Legend:
[1] = target: T1, Vβ17 on human CD8+ T cells; test: FACS
[2] = target: T1, Vβ17 on human CD8+ T cells; test: FACS

Binder | EC50 [1] | EC50 [2]
B1 | 12.6 nM | 1.4 nM and 1.5 nM
B2 | – | 0.8 nM and 1.26 nM

Source: patent US20260234252A1 (published 2026)
